{
  "source": "patent US20100129369A1",
  "about": "(Eli Lilly, published 2010)",
  "binders": {"B1": {"name": "C8-6 (antibody, human IgG2, kappa, V domains shown)", "VH": "QVQLVQSGAEVKKPGASVKVSCKASGYTFTDYYMHWVRQAPGQGLEWMGRVNPNRGGTTYNQKFEGRVTMTTDTSTSTAYMELRSLRSDDTAVYYCARTNWLDYWGQGTTVTVSS", "VL": "DIQMTQSPSSLSASVGDRVTITCSVSSSVSSIYLHWYQQKPGKAPKLLIYSTSNLASGVPSRFSGSGSGTDFTLTISSLQPEDFATYYCIQYSGYPLTFGGGTKVEIKR", "notes": "Called IgG4, kappa; also called Mab C8-6"}},
  "key": {"[1]": {"molecular_target": "T1, PlexinA2-ECD-Fc (human, UniProt O75051 35-1237)", "T1 construct": "extracellular domain; Bought reagent", "T1 sequence (looked up)": "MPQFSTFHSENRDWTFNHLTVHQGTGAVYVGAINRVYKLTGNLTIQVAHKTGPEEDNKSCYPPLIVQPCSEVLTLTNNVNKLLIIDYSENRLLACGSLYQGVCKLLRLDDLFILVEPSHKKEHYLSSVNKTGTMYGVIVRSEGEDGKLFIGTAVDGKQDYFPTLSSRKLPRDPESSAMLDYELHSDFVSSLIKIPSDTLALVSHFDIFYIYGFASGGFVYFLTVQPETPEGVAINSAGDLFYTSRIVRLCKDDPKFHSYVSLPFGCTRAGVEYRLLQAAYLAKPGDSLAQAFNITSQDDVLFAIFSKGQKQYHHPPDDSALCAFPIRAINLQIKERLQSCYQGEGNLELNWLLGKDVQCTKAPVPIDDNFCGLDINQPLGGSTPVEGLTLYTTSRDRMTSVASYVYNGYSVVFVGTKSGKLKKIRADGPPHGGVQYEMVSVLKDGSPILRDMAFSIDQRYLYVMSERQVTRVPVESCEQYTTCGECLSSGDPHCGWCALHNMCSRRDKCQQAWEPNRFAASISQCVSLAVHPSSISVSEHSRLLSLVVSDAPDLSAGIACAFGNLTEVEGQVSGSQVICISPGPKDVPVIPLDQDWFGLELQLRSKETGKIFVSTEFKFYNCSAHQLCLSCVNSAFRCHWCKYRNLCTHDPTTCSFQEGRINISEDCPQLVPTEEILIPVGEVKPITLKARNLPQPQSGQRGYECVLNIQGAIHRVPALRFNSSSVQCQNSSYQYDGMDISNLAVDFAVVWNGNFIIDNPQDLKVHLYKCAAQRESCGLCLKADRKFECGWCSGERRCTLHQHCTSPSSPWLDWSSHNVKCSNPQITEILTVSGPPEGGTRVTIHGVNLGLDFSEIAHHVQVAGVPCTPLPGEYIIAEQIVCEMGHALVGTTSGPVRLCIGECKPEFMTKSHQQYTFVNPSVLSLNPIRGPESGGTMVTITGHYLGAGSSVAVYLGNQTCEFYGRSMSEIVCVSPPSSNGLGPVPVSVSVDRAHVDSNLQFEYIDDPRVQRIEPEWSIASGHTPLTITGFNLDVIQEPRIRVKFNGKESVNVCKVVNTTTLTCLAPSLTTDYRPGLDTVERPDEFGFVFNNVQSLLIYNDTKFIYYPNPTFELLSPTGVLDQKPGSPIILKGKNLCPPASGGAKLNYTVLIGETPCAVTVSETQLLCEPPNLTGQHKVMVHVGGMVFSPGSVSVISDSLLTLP", "assay": "ELISA, coated ECD-Fc, antibody 12.860 ng/mL"}, "[2]": {"molecular_target": "T2, Human c-Met-Flis-Fc ECD (human)", "T2 construct": "also called human c-Met extracellular domain (ECD)-Fc-Flis fusion; Human cMet-ECD-Fc-Flis", "T2 sequence (chain, as listed by the source limits assumed)": "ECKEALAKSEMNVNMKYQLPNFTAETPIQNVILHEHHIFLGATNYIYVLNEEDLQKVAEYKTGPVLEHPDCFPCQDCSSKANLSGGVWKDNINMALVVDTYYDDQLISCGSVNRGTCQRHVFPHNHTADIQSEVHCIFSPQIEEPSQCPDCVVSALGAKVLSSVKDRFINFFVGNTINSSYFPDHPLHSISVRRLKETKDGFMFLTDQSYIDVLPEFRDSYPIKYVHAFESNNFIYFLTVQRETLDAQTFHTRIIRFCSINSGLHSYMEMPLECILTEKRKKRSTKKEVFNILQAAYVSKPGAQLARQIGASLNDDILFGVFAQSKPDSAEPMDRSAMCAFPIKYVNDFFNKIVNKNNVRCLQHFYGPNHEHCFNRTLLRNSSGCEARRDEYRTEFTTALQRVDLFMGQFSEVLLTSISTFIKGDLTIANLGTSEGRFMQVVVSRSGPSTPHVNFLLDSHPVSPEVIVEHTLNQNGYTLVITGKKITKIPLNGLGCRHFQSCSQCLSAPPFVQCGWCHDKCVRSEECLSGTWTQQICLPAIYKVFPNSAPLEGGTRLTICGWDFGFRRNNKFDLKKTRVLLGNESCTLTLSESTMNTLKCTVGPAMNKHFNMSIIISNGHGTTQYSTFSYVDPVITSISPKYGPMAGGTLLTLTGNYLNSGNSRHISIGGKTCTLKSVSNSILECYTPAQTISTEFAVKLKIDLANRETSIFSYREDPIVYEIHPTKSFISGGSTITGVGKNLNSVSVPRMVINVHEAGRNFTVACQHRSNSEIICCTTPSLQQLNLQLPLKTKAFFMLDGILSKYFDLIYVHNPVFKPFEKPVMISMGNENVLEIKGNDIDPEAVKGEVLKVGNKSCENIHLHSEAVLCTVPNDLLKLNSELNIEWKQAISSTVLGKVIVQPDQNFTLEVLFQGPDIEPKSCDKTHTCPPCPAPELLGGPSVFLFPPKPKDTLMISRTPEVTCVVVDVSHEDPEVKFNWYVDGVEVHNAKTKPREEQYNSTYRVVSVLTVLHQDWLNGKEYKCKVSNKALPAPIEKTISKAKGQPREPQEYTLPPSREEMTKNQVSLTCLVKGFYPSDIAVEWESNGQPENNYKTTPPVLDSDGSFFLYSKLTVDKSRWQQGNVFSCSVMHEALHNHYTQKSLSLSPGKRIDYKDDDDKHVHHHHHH", "assay": "ELISA, coated ECD-Fc, antibody 12.860 ng/mL"}, "[3]": {"molecular_target": "T3, mouse c-Met ECD (mouse, UniProt P16056 25-931)", "T3 construct": "extracellular domain", "T3 sequence (P16056 25-931)": "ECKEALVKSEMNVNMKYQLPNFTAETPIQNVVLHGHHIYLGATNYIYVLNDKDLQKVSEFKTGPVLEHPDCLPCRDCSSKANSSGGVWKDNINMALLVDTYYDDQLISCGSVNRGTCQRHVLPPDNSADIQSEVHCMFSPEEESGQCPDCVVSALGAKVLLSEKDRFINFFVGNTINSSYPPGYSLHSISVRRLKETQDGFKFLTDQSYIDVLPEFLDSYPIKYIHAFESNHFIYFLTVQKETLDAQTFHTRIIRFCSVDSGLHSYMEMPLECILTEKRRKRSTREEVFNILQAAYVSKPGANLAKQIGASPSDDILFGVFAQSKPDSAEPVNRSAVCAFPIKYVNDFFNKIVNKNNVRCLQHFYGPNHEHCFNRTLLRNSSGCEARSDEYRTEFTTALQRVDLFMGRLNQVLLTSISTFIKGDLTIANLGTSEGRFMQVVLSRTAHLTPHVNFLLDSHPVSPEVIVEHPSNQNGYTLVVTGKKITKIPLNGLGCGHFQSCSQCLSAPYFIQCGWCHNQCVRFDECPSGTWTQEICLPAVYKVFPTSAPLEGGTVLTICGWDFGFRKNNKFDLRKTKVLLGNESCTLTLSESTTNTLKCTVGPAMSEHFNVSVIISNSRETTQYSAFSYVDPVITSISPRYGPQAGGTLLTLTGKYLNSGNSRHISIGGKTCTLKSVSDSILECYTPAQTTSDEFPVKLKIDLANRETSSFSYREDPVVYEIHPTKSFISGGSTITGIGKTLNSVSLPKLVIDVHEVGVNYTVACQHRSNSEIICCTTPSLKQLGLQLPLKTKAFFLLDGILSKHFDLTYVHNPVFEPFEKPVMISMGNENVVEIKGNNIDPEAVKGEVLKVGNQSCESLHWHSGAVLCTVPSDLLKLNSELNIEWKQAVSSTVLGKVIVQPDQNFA", "assay": "ELISA, coated ECD (data not shown)"}, "[4]": {"molecular_target": "T4, Rat c-Met-Flis-Fc ECD (rat)", "T4 construct": "also called Rat cMet-ECD-Fc-Flis; rat c-Met ECD", "T4 sequence (chain, as listed by the source limits assumed)": "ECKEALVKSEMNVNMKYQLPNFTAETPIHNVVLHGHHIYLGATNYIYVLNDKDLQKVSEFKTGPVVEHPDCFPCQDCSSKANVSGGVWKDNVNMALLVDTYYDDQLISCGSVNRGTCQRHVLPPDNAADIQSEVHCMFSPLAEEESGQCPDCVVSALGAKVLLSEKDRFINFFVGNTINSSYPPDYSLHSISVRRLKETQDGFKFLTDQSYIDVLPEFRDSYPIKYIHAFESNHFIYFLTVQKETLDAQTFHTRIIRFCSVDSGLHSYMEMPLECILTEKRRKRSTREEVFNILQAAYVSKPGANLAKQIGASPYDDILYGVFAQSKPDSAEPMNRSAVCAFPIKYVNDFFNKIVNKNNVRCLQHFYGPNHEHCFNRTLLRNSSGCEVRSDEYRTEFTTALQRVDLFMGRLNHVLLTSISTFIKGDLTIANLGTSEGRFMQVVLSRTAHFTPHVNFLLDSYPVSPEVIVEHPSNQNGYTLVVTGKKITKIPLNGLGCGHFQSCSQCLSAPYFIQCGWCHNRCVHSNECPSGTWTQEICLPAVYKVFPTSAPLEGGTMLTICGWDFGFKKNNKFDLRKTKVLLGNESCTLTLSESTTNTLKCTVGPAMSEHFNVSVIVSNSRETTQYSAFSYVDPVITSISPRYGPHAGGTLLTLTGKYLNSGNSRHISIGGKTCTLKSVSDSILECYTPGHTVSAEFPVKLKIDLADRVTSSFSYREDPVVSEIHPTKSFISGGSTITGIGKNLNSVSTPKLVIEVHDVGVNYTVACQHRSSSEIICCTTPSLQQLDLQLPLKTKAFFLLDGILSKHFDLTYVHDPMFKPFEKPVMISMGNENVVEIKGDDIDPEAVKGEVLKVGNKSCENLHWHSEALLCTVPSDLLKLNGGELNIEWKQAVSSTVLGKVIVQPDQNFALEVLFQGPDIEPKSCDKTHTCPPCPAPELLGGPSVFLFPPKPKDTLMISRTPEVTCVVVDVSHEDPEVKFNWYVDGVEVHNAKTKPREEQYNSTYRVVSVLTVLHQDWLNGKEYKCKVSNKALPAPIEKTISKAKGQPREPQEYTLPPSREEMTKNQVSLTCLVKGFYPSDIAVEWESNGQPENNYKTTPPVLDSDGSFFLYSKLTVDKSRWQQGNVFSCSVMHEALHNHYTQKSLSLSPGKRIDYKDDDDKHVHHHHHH", "assay": "SPR (Biacore), antibody captured", "procedure": "A Biacore® 2000 instrument is used to measure the binding kinetics of c-Met antibodies to human, cynomolgus monkey, and rat c-Met ECDs. Measurements are performed at 25° C. Samples are dissolved in HBS-EP buffer (150 mM sodium chloride, 3 mM EDTA, 0.005% (w/v) surfactant P-20, and 10 mM N-2-hydroxyethylpiperazine-N′-2-ethanesulfonic acid (HEPES) at pH 7.4; #BR-1001-88).\nBinding is evaluated using multiple cycles. Each cycle is performed at a flow rate of 50 μL/min., and consists of the following steps: injection of about 10 μL of a c-Met antibody at 10 μg/mL aiming at a capture of 40-100 RUs, injection of 250 μL of human, cynomolgus, or rat c-Met-Flis-Fc ECD (starting at 100 nM and using two-fold serial dilutions for each cycle) followed by 20 min. for dissociation, and regeneration using about 30 μL of 10 mM glycine hydrochloride, pH 1.5. Association and dissociation rates for each cycle are evaluated using a “1:1 (Langmuir) binding” model in the BIAevaluation software, version 4.1."}, "[5]": {"molecular_target": "T1, PlexinA2-ECD-Fc", "assay": "ELISA, coated ECD-Fc, antibody 16666.667 ng/mL", "procedure": "Wells of 96-well EIA/RIA high binding plates (Costar, #2592) are coated with 100 μL of 1 μg/mL human c-Met extracellular domain (ECD)-Fc-Flis fusion (SEQ ID NO:72), RON-ECD-Fc (R&D Systems, #1947-MS), or PlexinA2-ECD-Fc (Abnova, Taipei, Taiwan #H00005362-P01) in coating buffer (BioFX Labs, # COAT-1000-01) overnight at 4° C. […] After the plates are washed, 100 μL/well of substrate solution (BioFx, #TMBW-1000-01) are added and the plates are incubated for 10 min. at room temperature. 100 μL/well of stop solution (BioFx, # LSTP-1000-01) are added to stop the reaction. The colorimetric signals are developed and read at 450 nm using a SpectraMax 190 plate reader (Molecular Devices, Sunnyvale, Calif.). c-Met antibody binding to c-Met, RON and PlexinA2 ECDs is proportional to color signal production."}},
  "data": [
    {"binder": "B1", "values": [
      {"measurement": "Average A450 nm", "setting": "[1]", "value": 0.085, "unit": "A450 nm"},
      {"measurement": "Average A450 nm", "setting": "[2]", "value": 4, "unit": "A450 nm"},
      {"measurement": "binding result", "setting": "[3]", "value": "no binding (tested: 100 nM)"},
      {"measurement": "binding result", "setting": "[4]", "value": "no binding"},
      {"measurement": "Average A450 nm", "setting": "[5]", "value": 0.118, "unit": "A450 nm"}
    ]}
  ]
}
